Molecular target: T1, GST-leupaxin FL (mouse, UniProt Q99N69 1-386)
T1 sequence (looked up): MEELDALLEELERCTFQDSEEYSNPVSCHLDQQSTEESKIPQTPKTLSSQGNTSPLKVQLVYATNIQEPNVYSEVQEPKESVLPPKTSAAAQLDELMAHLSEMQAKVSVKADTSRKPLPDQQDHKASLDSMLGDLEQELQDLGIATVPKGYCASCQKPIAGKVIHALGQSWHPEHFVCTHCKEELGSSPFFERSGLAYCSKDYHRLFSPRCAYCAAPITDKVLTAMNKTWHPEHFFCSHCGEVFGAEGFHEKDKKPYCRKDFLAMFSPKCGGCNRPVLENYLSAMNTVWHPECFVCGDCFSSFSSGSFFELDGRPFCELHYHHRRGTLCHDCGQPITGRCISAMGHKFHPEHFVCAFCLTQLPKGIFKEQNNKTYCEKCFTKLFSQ
Test: pull-down

B1: HisSUMO-tagged kindlin-3 F0 domain (domain or fragment, UniProt Q8K1B8 1-97, looked up)
chain: MAGMKTASGDYIDSSWELRVFVGEEDPEAQSVTLRVTGESHIGGVLLKIVEEINRKQDWSDHAIWWEQKRQWLLQTHWTLDKYGILADARLFFGPQH
B1: binds.

Reference: publication PMC6781449 (The Journal of Cell Biology, 2019)
